Results on one substance are retold here after IntAct's records for PubMed 29769717.

The assay deals with srrt_arath SE (UniProt Q9ZVD0).
Sequence of UniProt Q9ZVD0 (Q9ZVD0 whole entry): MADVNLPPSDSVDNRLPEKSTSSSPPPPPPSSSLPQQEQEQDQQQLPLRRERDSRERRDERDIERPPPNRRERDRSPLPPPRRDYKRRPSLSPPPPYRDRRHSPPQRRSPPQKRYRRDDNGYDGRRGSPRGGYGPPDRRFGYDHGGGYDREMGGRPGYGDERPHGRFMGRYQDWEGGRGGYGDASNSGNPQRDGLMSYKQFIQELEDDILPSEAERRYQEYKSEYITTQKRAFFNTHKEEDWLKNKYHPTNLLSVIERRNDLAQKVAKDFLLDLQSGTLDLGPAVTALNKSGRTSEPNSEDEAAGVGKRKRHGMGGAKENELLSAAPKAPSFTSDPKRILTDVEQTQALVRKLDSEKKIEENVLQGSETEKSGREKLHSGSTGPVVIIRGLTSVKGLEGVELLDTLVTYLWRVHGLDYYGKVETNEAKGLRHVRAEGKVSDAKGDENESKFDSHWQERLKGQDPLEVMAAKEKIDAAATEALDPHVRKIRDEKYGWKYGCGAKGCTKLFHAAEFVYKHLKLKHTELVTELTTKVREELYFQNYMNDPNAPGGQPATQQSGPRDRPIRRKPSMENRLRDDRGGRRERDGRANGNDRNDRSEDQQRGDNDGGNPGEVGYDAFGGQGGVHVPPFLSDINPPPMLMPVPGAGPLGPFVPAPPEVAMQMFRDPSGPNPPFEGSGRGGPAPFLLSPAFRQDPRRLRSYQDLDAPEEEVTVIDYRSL

Take “ATP-dependent helicase BRM (Arabidopsis thaliana (Mouse-ear cress)), Q6EVK6 E1747A”: the “effect of a mutation on the interaction” value is “disrupting interaction”.
